We go through 1 substance from patent US20090304581A1.

In this assay the target is CD20 on Daudi cells (human) (UniProt P11836). In words: live-cell radioimmunoreactivity assay on Daudi cells, cell pellet cpm over total cpm.
Chain of UniProt P11836 (P11836 whole entry): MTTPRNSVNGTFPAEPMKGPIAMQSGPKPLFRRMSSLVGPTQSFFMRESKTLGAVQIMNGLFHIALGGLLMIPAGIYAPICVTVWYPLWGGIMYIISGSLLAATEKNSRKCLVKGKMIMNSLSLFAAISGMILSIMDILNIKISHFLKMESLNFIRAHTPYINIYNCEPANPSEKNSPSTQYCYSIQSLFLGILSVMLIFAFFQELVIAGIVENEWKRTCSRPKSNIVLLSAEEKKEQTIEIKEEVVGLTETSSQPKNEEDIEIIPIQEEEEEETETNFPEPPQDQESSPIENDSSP

Substance SWNT-rituximab-111In*DOTA (antibody) gave a maximum binding (immunoreactive fraction) of 29%.
